The test has as its target MaxiK channel of rat bladder detrusor smooth muscle (endogenous) (rat) (UniProt Q62976). The test is described as follows: cell-based or functional assay.

Bounds are passed on as bounds.

Outward current in response to applied voltage, single whole cell patch clamp of detrusor cells before and after 300 nM IBTX data for one substance are collected here from patent US20160184455A1.

UniProt Q62976, sequence (Q62976 whole entry): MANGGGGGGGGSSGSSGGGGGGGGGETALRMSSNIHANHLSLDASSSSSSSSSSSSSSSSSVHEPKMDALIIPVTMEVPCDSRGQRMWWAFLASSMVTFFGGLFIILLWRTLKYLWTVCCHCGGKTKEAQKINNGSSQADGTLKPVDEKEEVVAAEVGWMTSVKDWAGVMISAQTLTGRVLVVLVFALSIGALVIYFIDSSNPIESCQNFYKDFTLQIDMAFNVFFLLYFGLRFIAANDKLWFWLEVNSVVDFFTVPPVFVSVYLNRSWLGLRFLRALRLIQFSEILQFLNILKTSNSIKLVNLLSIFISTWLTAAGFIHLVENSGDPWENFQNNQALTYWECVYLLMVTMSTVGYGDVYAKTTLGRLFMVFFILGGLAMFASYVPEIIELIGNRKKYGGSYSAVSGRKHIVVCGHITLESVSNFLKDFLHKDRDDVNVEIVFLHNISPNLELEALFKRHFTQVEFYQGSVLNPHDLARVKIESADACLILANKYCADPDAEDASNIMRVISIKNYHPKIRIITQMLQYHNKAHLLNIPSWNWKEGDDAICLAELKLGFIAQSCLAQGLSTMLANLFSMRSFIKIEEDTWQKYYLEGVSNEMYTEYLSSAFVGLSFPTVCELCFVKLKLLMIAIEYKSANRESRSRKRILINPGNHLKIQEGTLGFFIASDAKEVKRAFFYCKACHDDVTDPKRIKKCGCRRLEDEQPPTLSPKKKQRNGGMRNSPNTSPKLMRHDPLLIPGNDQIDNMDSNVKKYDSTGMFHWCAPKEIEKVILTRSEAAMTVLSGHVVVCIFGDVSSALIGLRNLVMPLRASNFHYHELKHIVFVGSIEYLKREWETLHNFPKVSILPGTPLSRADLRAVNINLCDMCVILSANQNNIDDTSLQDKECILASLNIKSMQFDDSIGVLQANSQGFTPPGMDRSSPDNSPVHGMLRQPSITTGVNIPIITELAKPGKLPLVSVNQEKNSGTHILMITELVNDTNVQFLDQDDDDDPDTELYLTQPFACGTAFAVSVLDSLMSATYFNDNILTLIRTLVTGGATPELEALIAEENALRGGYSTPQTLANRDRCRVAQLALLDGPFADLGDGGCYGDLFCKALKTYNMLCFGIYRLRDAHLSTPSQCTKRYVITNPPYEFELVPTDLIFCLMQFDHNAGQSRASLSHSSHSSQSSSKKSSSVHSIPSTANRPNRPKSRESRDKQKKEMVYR

Regarding “iberiotoxin (IBTX) (from UniProt P24663 1-37) (peptide)”, the outward current in response to applied voltage, single whole cell patch clamp of detrusor cells before and after 300 nM IBTX is more than 50%.
